Experiment: label from the status in PepcDB records
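Note: failed if final PepcDB status was selected cloned or expressed and not failed if soluble or beyond.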

| Sequence | protein production |
| --- | --- |
| MSSPATTITFFFFFTLSSFFYITSSLQNNNNNKHTATVNSLNIPSAAAEITLVNPKLPPRSLSLTSSKKFEGSSNLVHLRYHMGPVLSSSPINIYVIWYGQWSRPHKSLIRDFLNSISDAKAPSPSVSEWWRTASLYTDQTGSNVSRSVLIAGEYSDSKYSHGQHLTRLTIQEVIASAARSASFPVDHKNGMYLVLTSHDVTMQDFCRAVCGFHYFTFPSMVGYTMPYAWVGQSGKQCPEVCAYPFALPGYMGHGGPGELRPPNGETGVDGMVSVIGHELAEVVSNPLINAWYAGEDPTAPTEIGDLCEGLYGSGGGGGYIGQVMRDREGKTFNMNGKGGRKFLVQWIWNPNLKACSGPNSVD | failed |
| MNSHCSHTFITDNRSPRARRGHAMSTLHKVKAYFGMAPMEDYDDEYYDDRAPSRGYARPRFDDDYGRYDGRDYDDARSDSRGDLRGEPADYPPPGYRGGYADEPRFRPREFDRAEMTRPRFGSWLRNSTRGALAMDPRRMAMMFEDGHPLSKITTLRPKDYSEARTIGERFRDGSPVIMDLVSMDNADAKRLVDFAAGLAFALRGSFDKVATKVFLLSPADVDVSPEERRRIAETGFYAYQ | failed |
| MKYLLIFLLVLAIFVISVTLGAQNDQQVTFNYLLAQGEYRISTLLAVLFAAGFAIGWLICGLFWLRVRVSLARAERKIKRLENQLSPATDVAVVPHSSAAKE | failed |
| MKNHLITVLVCCLFFIGCKDDKANSNQYDPSQPVVFTDFSPKEGGMRTRLYIEGSNFGNDPTKIHITIGGEKTKTIGADGKKIYCMVPSKAFDGIINVRVDGPDGKPIAEHTFEEEFKYTPATIVGTLLRKVDEDNNSAFQEGSFDEGASIPSNDCMVFDPKYKDGDNRLLFSSNHSDGLHLIDLTERTVKRLFPRTGYSTMYSFTFSADGDTLLFTDDHGQDNTTRANIYYSLRRENFRRIRPYNYGRTAYSLVYMDDGTIFYTTWWEGKVYKMIRNGAIPNIDENAEVAFSLSQISAVGGSHTILFRHPSNKFMYMLSDNFGAVFRADYDPVAKTFGNPSIIAGNMNDKSFKEGTGGSARFNKPQFGVFVKNEKYGEGIGPDNDQYDFYFCDRENHCIWKLDPHGVASLAAGRSNENADGKIWGYVDGNPLHEARFNQPAGLAYDPDTDMFYIGDIDNKGIRYMTTE | failed |
| MNDTLLNAYSGIKTHQFGIDSLSNNIANVNTLGYRSNDPEFKTLFSSHLDALNAKSVVANDRNYGVTGSGNVLSNKDGEYMPSEGEFHMAYQGKGWFVIGPNKNGEITINKDGFSKKQDNFLTRAGNFARDADGYLVTPEGYYVYGIDLKKIKDGTLNSTARDEDIEKLHGNTLSPLQIPQDLTYQPVLSTKVNISVNLNPKDHLKGVQDFFLNDKGEIIKERFLNQDINALANNDNEPIDAITNRKLNISIQKEDGKKEDFVFTYGDAEKGENQFKTLGDLQKLLKEKTGLDLNLIKSEKDAKSPPLLLEIANPSQTPITFSLSGGIADKLGLKADGMELKKGISRDSVAIKIPYYSTEVDIYDKAGDKYLLQSEYYMTNSNDPTSSPTSKRKNQTWEVKSYIADPKNKTPINDPTWEIVGFDSATHKMKSAPMTLDFKGNKLTYSLDKSENHDSSDLSYQDSKLLEASQDGKPRGIFRDMRIEENGVISLAFSNGVVEPVARIGILAFTNDQGLRKIGGNLYEMQEGTINGENRPLSGNPILGWDEEGKLKFGKIRHKYLETSNVNAGNALTNLILMQRGYSMNARAFGAGDDMIKEAISLKK | failed |
| MYSDKKNILQLVALLKAHGVRKIVLCPGSRNAAIVHTLANIEDFTCYSVTDERSAGFFAIGLSLQGGGPAAVCCTSGSALLNLHPAVAEAFYQQVPLIVISADRPAAWIGQMDGQTLPQPHVFGTLVKMSVNLPEVHTEEDEWFCNRLINEAILETTHHGKGPVHINVPISEPIYRFTAKTLPEVRVITRYQGL | failed |
| MSIPNGGSHQSLEALLAAYDFRLRHEPRNCTLWNNRGILLERLNRWTEALASYNCALEITPQRQEALNNRAIVLEHLGRLPEAVESYEQALAIDRQQPEVWNNRGIVLRKLGRLEDAIASYQQAIALAAHYAQAWANCGFALWQQGRYREAVRHYEQSVAIDPDQSSAWRQLGQIYLSVDQPDQALRCLDQAIALQPQQATAWTWRGHALYNLGQYAAALTSYENAELLGDRPLLLSIQRGHTLAQLERYEEALASYAAILPQLTGEAAAEVAYYQGLVWAYLQDWTAALAAFDQAIAGNPDLAEAWYNRAALHARLDQPVAAIADLQQAIALDPDTYRSLAAEDPDYQTLHAHPDWIQLQRA | failed |
| MKANAIASDIKISKRDLEVAALAVIGTVAYIHYLWSFVLKITSPILIARGIFETTYSVLSIGLAKYVRIYYPLGIASSFTGAALTVIKLHLYESEIFSIINIVFDIFSVPVCAFLFIKNMEVINWH | failed |
| MRMQRQGCVQAQIAGQSGMLTYWDNRRDMPMIASHRWTALFVLVILMPLPAFAGTPEGGYRQPPEPLLSVMRAPLNPSPRPDPTGRTLLLVQRTQYPPIARVAEPYLKLAGVRVEPRTHSRHDMSNGYGIRSCLEGFSLVDIASGKQTAVSLPAGACPALPVWSPDGRRFAFNNTAADHVELWVGDVATGQVRKIDGVQLNPVLGGEIQWLGGSSTLLLKTVPQDLGPAPRKAAVPPGPEVKETIQGKGESSTYEARDTLSSPQDEALFTYYATAQLLTVDAATGSQRKLGTPAVYSNVDGAPDGRHVLVERLKPPYSYVTTYARFAHDVAVLDLETGNERVLANLPVADRVPVQGVPTGPRAYAWRANQPATLVWAEALDGGDWKTSVPARDTLMTLAAPFTAKPRALARVQQRYAGLSWFAEGGQALLDEYDENRHWRRTTLVDADRPGAGERVLFDLSTDDLYADPGLPEMRVLANGQAVLREAQGALFLSGQGASPAGDRPFLDRYTLATGKSQRLFRSDAHVDEVFFGFAGDETSRLLTWHQSLTDPPNVYVRTLGEPLPAPAAGEAAFASTATPVTHFADPTPLVRQIKKRLVSYKRKDGVDLSFTLYTPPGYKEGTRVPAILYAYPLDYADPSKAGQVSGASERDFTRLNYYQLLLLAGYAIIDDAAFPIVGDPKTAYDTYLQQLVDDATAAVDKAVELGVVDRQRIGVTGHSHGALMTANLLAHTDLFRAGAATSGSYNKTLTPFGFQSERRSFWKAPDVYAQASAFFHADKINEPLLIVHGMDDANPGTETTQAPRLFQAIRGNGGTARLVLLPFEPHWYSARESNEDLVAEMLEWFDRYVKNAPPRDAQHANDVR | failed |
| MKFGKRHYRPQVDQMDCGVASLAMVFGYYGSYYFLAHLRELAKTTMDGTTALGLVKVAEEIGFETRAIKADMTLFDLPDLTFPFVAHVLKEGKLLHYYVVTGQDKDSIHIADPDPGVKLTKLPRERFEEEWTGVTLFMAPSPD | not failed |
| MRWRHPSALRKADERGRRTPCVVSATSLAVGRIALALLLVVLNGFFVAAEFAFVRLRSASVETLVQDGRRGATAVKEATDNLDDYLAVSQLGITIASLGLGWVGEPAVAVLVDPLLEPVLPAPVRHTVTVALGFGIVTLLHVVYGELAPKTIAIQRAERVALVVAPVMKLFYYVFLPGTILFNGIATRSVQLIGVSPETEGHDTHTEPEILSVLSEASAAGRISPAEVSMIEHVFSLDDTTVREIMRPRPDVTSVSADTPLPELRTMAASGEYTRYPVTEGPDDDVIGFVDVKDILRASDAIDESGDVTARELSRPVVVVPETLRVDELLAEFQAEHRQMAVVIDEWGAFEGLATIEDALEVIVGDIRDQFDLATHAQSIEPRDDGGYEVPGAVSITELNDHLGTDFENEAVETVAGLVVSRLGHAPTVGDRAVIDTHTFRVTGVDGARITSLTVTPDS | failed |
| MMKRVAVTGAAGRVGTLLRPLLRSHFEHLSLIDLQEPDELGENENFVRADFTKLDEATAALKDIDGVIHLAGIASGTDMNAILHANVLGTYNLYEAARINKVQRVVYASSNHATGFYPRGQLVSPLDPMRPDSPYGLSKCWGELVAGLYYDTSGIRSLSIRIGNAGTYPNSERSIAIWISARDLAQLVRIGLSHPLIAATVVYGVSDTEEKWWENDLATRLGYQPQDRPRDHALIEEGSEGPVALAFQGGGFCEINHDGTIRMRDADGLAKSPETVE | failed |
| MADTRPERRFTRIDRLPPYVFNITAELKMAARRRGEDIIDFSMGNPDGATPPHIVEKLCTVAQRPDTHGYSTSRGIPRLRRAISRWYQDRYDVEIDPESEAIVTIGSKEGLAHLMLATLDHGDTVLVPNPSYPIHIYGAVIAGAQVRSVPLVEGVDFFNELERAIRESYPKPKMMILGFPSNPTAQCVELEFFEKVVALAKRYDVLVVHDLAYADIVYDGWKAPSIMQVPGARDVAVEFFTLSKSYNMAGWRIGFMVGNKTLVSALARIKSYHDYGTFTPLQVAAIAALEGDQQCVRDIAEQYKRRRDVLVKGLHEAGWMVEMPKASMYVWAKIPEPYAAMGSLEFAKKLLNEAKVCVSPGIGFGDYGDTHVRFALIENRDRIRQAIRGIKAMFRADGLLPASSKHIHENAE | failed |
| MSNIIVLSGSPRKGGNTDLLVDAFVKGAEKSNNVEVVSVAYYKVNPCIGCNSCFDRAGHECFQQDDMQIVYDKLKCADVIVVASPVYFYGVSAQLKAIIDRLHTPMRNDFKVKKLALILVGAAVLPELFDSIKIQYQLVLNFFKLEDAGMVLVRGAKDKGDVRNTDGLDEAYRLGLAME | failed |
| MASKKKPIDSRVDYSLILPVFFLVLIGLFSVYTATIHDYPSKIMVVMGQQLIWLIMGAAISFVVMLFSTEFLWKITPYLYGLGLILMIFPLIFYSPELVASTGAKNWVSIGSVTLFQPSEFMKISYILILARLTVTFKQKYKEKNLQEDGKLLLWFALLTLPIMILLALQKDLGTAMVFMAILAGLVLIAGISWQIILPVVGAVALIVALFMVVFLIPGGKEFLYHHMGVDTYQINRLSAWLNPFDYAGSIAYQQTQGMISIGSGGLFGKGFNIVELPVPVRESDMIFTVIAENFGFIGGSIVLALYLILIYRMLRVTFASNNLFYTYISTGFIMMILFHIFENIGAAVGILPLTGIPLPFISQGGSSLISNLIGVGLVLSMSYQNSLNQEKATERYFAHIKKESLTS | failed |
| RTKDGLTLYTRRWDVESPRAVICLVHGLGEHSGRYEHVARFFNENGISFAAFDLRGHGRSEGKRGHAEYQQLMDDITLFLQSLDYDCPKILYGHSMGGNLALNYILRYDPDIAGGIISAPFLALPKELPKHLFFILKLLNVVAPSIQLSNGIDPNLISRDREVVEAYVSDPLVHDKISPRFILQSLEAGKWALENADRLRKPILLIHGTADQITSYRASQEFAKRAGELCKFVSYEGFYHEPHNEPEKERVLADMLKWIEEVI | failed |
| MICLPETGFLAEASPRLKQMLAAQAAEIGLARGDTLFKQGDPGDALYAVLSGALEISILSLDGRKLSLDLVGPGAVFGEIALFDPGPRTATVSAAEPARVLRVLSADVMAELRRHPELAIDMVRLAGQRMRWMGGQLNEQVFLPVPTRLARKLLHLAPHHDAGGATVRLSQAELAEYVGATREAVSKTLAHWKRMGVIEVARGTLAIRDPQALRALADPDQI | failed |
| MSLEKLKLIGDERLDYLLAENLRIIQSPSVFSFSIDAVLLAKFSYLPIRKGKIIDLCSGNGIIPLLLSTRTKAKIVGVEIQERLADMAKRSVAYNQLEDQIEIIEYDLKKITDLIPKERADIVTCNPPYFATPDTSLKNTNEHFRIARHEVMCTLEDTIRVAASLLKQGGKANFVHRPERLLDIIDIMRKYRLEPKRIQFVHPRSDREANTVLVEGIKDGKPGVKYVPPVIVYDELGEYTPVIKEILYGESEGHHHHHH | not failed |
| MDFWPEFMATSWGREFVAGGFGGVAGIISGYPLDTLRIRQQQSSKSGSAFSILRRMLAIEGPSSLYRGMAAPLASVTFQNAMVFQIYAIFSRSFDSSVPLVEPPSYRGVALGGVATGAVQSLLLTPVELIKIRLQLQQTKSGPITLAKSILRRQGLQGLYRGLTITVLRDAPAHGLYFWTYEYVRERLHPGCRKTGQENLRTMLVAGGLAGVASWVACYPLDVVKTRLQQGHGAYEGIADCFRKSVKQEGYTVLWRGLGTAVARAFVVNGAIFAAYEVALRCLFNQSPSPDIVTGD | failed |

From a protein production outcome set (Wang et al. 2014)
